Results published in the Human Domainome abundance scans (Beltran et al. 2025).

B1: Lysine-specific demethylase 5C, residues 319 to 373; numbered along this chain, P41229 (parent)
chain: AQFIESYVCRMCSRGDEDDKLLLCDGCDDNYHIFCLLPPLPEIPKGVWRCPKCVM

Variants of: B1
Experiment: abundance fitness (aPCA) (normalised: wild type 0, dead -1); higher = more abundant; growth selection in yeast, the domain comes from the species named
Conditions: Homo sapiens

Abundance fitness, by site and new letter:
I43: T -0.467; E -0.057; V -0.137; C -0.314; F -0.21
K20: Y -0.035; F -0.16; G -0.666; H -0.103; C -0.379; I -0.489
C12: F -0.731; S -0.855; N -0.713; W -0.853; I -1.14; M -0.669
A1: V -0.297; S -0.244; L -0.331
E17: C 0.261; F -0.062
P41: N -0.157; A -0.134; Q -0.051; I -0.134; R 0.126; F -0.261; E -0.278; C -0.185; G -0.078; S 0.047; M -0.55
D19: A 0.063; L -0.162; V -0.102; I -0.198; Y -0.335; W -0.146
K45: S -0.266; M -0.469; L -0.175; E -0.138; H -0.048; F -0.491
W48: V -0.78; G -0.676; K -0.635; H -0.811; F -0.253; Y -0.568; T -1.05; L -0.849; A -0.59
L37: S -0.012; T -0.03; R 0.092; K 0.277
P51: D 0.009; I -0.175; T -0.467; C -0.427; Q -0.136; M -0.092; V -0.153; S 0.138
C50: P -0.987; G -1.01; D -0.841; Q -0.71; T -1.05; M -1.17
Y31: W -0.364; A -0.476; N -0.679; E -0.538; S -0.93; P -0.776; F -0.163; L -0.589
S13: I -0.029; H -0.239; G 0.074; D -0.042; T -0.035
G46: V -0.105; N -0.405; C -0.578; L -0.191; S -0.204; R -0.083; A -0.059
R10: C -0.108; L 0.021; E -0.1; A -0.148; T 0.082; P -0.394; S -0.28
V54: Q -0.54; I 0.017; N -0.262; G -0.27
S6: W -0.414; F -0.154; E -0.08; R 0.001
V47: L -0.359; K 0.154; C -0.213; D -0.064; P -0.247; R 0.044; W -0.473; T -0.101
M11: R 0.073; S -0.138; K 0.169; Q 0.045; W -0.18; D -0.063; A -0.079
G26: S -0.159; Y -0.341; N -0.105; V -0.217; F -0.047; L -0.071
Q2: E -0.258; V -0.153; M -0.109; W -0.057; G -0.446; H -0.187; P -0.141; L -0.119; T 0.203; Y -0.053
C24: Y -0.812
C27: G -0.825; W -1.06; N -0.806; H -0.905; T -0.694
H32: G -1.01; R -0.675; Y -0.972; T -0.898; S -0.984
C35: H -0.235; I -1; R -0.41; V -1.17; F -0.556; K -0.947; S -0.597; W -0.804
L22: E -0.523; F -0.551; M 0.05
I33: K -0.423; R -0.381
L23: D 0.084; Y -0.141; R 0.166; I -0.156; T 0.094; M 0.235
E5: T -0.078; W -0.451; C 0.046; M 0.145; S -0.125; K 0.036
I4: H -0.111; W -0.287; Q 0.451; V -0.019; C -0.106; A -0.188; Y -0.687; R -0.3; P -0.118
D29: V -0.228; G -0.077
F34: N 0.095; W -0.087; V -0.078; P -0.291; E 0.021; T 0.039; L -0.157; S -0.029; G 0.046
P39: V -0.129; C -0.264; L -0.473; M -0.292; S 0.078; R -0.164; Y -0.59; F -0.667; G -0.217
D18: V 0.034; R 0.087; Y -0.284; C -0.178; I 0.125; Q 0.224; L 0.052; T -0.065; K 0.184; N -0.087; A 0.112; W 0.035; P 0.176; E 0.042
V8: R -0.075; S 0.007; E -0.266; T -0.039; H -0.11; Q -0.11; D -0.315; M -0.052
P38: N 0.041; T -0.285; Y -0.416; M -0.388; C -0.166; V -0.1; R -0.116; W -0.491; Q 0.178; L -0.237
Y7: I -0.023; F -0.14; K 0.155; D 0.173; W -0.266; Q -0.052; E 0.193; S 0.139; A 0.18; P -0.073
G15: V -0.025; W -0.169; C 0.167; D -0.058; H -0.391
D28: P 0.259; S 0.148; M -0.411; K -0.516; E -0.102; V -0.527; T -0.494
M55: G -0.61; A -0.035; L -0.154; V 0.015; I -0.346
C53: K -0.921; P -0.744; E -0.952
K52: R 0.007; P 0.049; D 0.095; S -0.183
D16: C -0.115; W -0.351; I 0.089; M 0.086; Y -0.115; V -0.029; T -0.182; K -0.265
C9: D -0.847; L -0.978; W -0.937; S -0.82; G -0.655; R -0.827
R49: S -0.324; V -0.25; N 0.268; F -0.358; P -0.949; M -0.092; K 0.205; G -0.4; T -0.055; Q 0.106; L -0.164; C -0.468
D25: M -0.419; L -0.381; Q -0.218; S -0.062; V -0.009; R -0.058
L36: N -0.576; R -0.732; T -0.16; H 0.006; C 0.232; M -0.275
L21: H -0.458; D -0.87; M -0.167; Y -0.338; F -0.078
F3: T -0.046; L 0.005; G 0.022; R 0.072; V 0.042
N30: I 0.219; W -0.117; H -0.176; F -0.077; G 0.052; P -0.088; R 0.071; K 0.098
E42: H -0.44; M -0.37; A -0.05; D 0.043; Q 0.033; R -0.072; T 0.068; W -0.333; V -0.157
